Where two headings read alike, the source gives them in different places.
What was measured:
[1] = molecular target: T1, human IFNAR1, full length (IFNAR1-aa1-557) (human) (UniProt P17181); assay: cell-based or functional assay
T1 sequence (looked up): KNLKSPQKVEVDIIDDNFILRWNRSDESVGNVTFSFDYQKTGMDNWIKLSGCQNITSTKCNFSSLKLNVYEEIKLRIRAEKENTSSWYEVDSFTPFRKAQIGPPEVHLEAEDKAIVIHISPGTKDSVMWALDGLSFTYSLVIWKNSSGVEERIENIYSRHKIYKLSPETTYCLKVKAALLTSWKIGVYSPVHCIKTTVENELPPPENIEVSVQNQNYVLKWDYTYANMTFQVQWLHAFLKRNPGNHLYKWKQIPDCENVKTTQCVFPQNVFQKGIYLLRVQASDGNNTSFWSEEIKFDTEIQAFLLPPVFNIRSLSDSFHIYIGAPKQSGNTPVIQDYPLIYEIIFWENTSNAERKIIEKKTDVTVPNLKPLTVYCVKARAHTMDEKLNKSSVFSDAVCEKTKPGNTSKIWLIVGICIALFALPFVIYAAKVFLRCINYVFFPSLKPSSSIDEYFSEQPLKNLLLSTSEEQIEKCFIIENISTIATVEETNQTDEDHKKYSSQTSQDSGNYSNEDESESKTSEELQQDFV

[2] = molecular target: T2, human/mouse chimeric IFNAR1 variant IFNAR1-m149-214 (human, with residues 149-214 replaced …, UniProt P17181 28-557); assay: flow cytometry, 293T cells overexpressing IFNAR1-m149-214, MFI
T2 construct: expressed on 293T cells
T2 chain: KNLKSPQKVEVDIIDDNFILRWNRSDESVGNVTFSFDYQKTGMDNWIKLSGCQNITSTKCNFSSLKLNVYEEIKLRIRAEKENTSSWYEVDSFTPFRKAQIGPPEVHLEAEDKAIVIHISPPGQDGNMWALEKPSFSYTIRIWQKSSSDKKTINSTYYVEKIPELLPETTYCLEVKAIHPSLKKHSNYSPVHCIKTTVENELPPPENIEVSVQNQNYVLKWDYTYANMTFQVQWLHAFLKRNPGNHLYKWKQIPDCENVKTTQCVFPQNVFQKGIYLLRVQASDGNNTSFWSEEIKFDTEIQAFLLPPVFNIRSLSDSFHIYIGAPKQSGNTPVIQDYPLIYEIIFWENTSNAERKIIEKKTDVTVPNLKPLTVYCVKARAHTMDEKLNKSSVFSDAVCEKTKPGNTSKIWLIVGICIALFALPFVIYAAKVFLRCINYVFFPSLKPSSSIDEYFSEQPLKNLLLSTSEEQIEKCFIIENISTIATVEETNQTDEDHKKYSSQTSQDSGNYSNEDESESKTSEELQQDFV
Protocol: (§1) After the incubation, the cells were centrifuged and re-suspended with 200 μL of FACS buffer, before next centrifugation and re-suspension.
(§2) PE-labeled goat anti-mouse IgG antibody (Biolegend) diluted in FACS buffer at 1:400 was added to each well. The cells were re-suspended and incubated at 4° C. for 30 min in the dark. After the incubation, the plate was centrifuged, the supernatant was discarded, and the cells were washed once as described above and re-suspended by adding 200 μL FACS buffer. Finally, the re-suspended cells were analyzed using a flow cytometer Guava (Millipore) for cellular GFP and PE signals.

[3] = molecular target: T3, human IFNAR1, full length (IFNAR1-aa1-557) (human, UniProt P17181 28-557); assay: cell-based or functional assay
T3 sequence (looked up): T1 sequence (looked up)

[4] = molecular target: T2, human/mouse chimeric IFNAR1 variant …; assay: flow cytometry, 293T cells overexpressing IFNAR1-m149-214, MFI
Protocol: as §1, §2

Human IFNAR1 SD1-SD4 = molecular target: T4, Human IFNAR1 SD1-SD4 (human, UniProt P17181 28-436, limits assumed); assay: SPR (Biacore 8K), antibody captured on anti-human IgG Fc, antigen injected
T4 construct: domain: SD1-SD4; Antigen injected in the Biacore assay
T4 sequence (looked up): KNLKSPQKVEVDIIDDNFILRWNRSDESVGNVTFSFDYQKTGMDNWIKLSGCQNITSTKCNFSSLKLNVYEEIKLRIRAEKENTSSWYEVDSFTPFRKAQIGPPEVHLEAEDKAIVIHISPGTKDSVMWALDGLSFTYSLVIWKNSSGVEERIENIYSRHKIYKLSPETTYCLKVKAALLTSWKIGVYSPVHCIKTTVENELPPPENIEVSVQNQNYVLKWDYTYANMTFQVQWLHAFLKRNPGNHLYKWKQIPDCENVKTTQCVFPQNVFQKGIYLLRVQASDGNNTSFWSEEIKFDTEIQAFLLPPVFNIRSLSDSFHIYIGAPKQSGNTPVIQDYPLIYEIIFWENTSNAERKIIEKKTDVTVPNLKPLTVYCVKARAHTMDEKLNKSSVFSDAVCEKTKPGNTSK
Protocol: Preparation of a CM5 chip surface: Using HBS-EP+ (10 mM HEPES, 150 mM NaCl, 3 mM EDTA, 0.05% surfactant P20) as running buffer, both channel 1&2 of a CM5 sensor chip (GE Healthcare, BR-1000-30) were activated with a fresh mixture of 50 mM NHS and 200 mM EDC (1:1). Anti-human IgG Fc, 20 μg/ml in 10 mM NaOAc buffer (pH 5.0), was then passed over the activated surface of the two flow cells in each channel at 10 l/min (target around 10000 RU). […] Low flow rate was maintained over 2 hours for the equilibrium of the immobilized protein.
Measurement of binding kinetics: Each antibody was captured in flow cell FC2 in channel 1&2 around 250 RU respectively, using FC1 as the reference cell, followed by injection of antigen samples at varying concentrations. The signals with captured antibody subtracted from that without captured antibody were calculated with Biacore 8K evaluation software. The running buffer was HBS-EP+(10 mM HEPES, 150 mM NaCl, 3 mM EDTA, 0.05% surfactant P20).

[5] = molecular target: T3, human IFNAR1, full length …; assay: flow cytometry on cells expressing human IFNAR1, MFI of PE
[6] = molecular target: T3, human IFNAR1, full length …; assay: as above; remark: listed apart in the source
human IFNAR1 ECD = molecular target: T5, human IFNAR1 ECD (human, UniProt P17181 28-436); assay: ELISA, plate coated with human IFNAR1 ECD, anti-human IgG Fc-peroxidase, OD450
T5 construct: extracellular domain; Coated on ELISA plates at 5 ug/ml
T5 sequence (looked up): T4 sequence (looked up)
Protocol: 96-well plates were coated with 100ul 5 ug/ml human IFNAR1 ECD in 1×PBS and incubate at 4° C. overnight. The plates were then washed with PBST (1×PBS+0.05% Tween20) for 3 times and blocked with the blocking buffer (1×PBS+0.05% Tween20+1% BSA) at RT for 2 hr. […] The plates were washed with PBST for 3 times, followed by addition of antibody (Anti-Human IgG (Fc specific)-Peroxidase antibody produced in goat, ZSGB-BIO) at 100ul/well and then incubated at RT for 1 hr. The plates were washed with PBST 5 times and then 100ul/well TMB was added and after 15 minutes, the plates were quenched with 50ul/well 2N H₂SO₄. The plates were read with Molecular device spectra max at 450 nm.

In the case of “Human IFNω (from UniProt P05000 24-195) (ligand)”, the percentage of GFP positive cells in IFN-I reporter cells, 50 pg/ml IFNω against Mock control [1] is reported as over 5 fold.

“Human IFNβ (from UniProt P01574 22-187) (ligand)” showed a percentage of GFP positive cells in IFN-I reporter cells, 50 pg/ml IFNβ against Mock control [1] of over 5 fold.

B1: anti-human IFNAR1 monoclonal antibody 7G4 (antibody, V domains shown)
VH: QVQLQQPGAELVKPGAPVKLSCKASGYTFTSYWMNWVRQRPGRGLEWIGKIDPSDSETHFNQKFRDKATLTVDKSSTTAYIQLSSLTSEDSAVYYCARGGRISFDYDAALDYWGQGTSVTVSS
VL: DILMTQSSSSFSVSLGDRVTITCKSSEVIYNRLAWFQQKPGNAPRLLISGATTLESGFPSRFSGSGSGKDYTLSITSLQIEDVSTYYCQQYWNKPFTFGSGTKLEVK
notes: Mouse monoclonal antibody from hybridoma CGMCC No. 16286
For B1, the binding result [2] was “binds” and the “fold decrease in percentage of GFP positive reporter cells with serum from SLE patients” value [3] was about 3 fold.

B2: anti-human IFNAR1 monoclonal antibody 10C5 (antibody, V domains shown)
VH: QVQLQQPGTELVKPGSPVKLSCKASGYTFTSFWLNWVQQRPGRGLEWIGKIDPSDSEIRYNQKFKDKATLTVDKSSNTAYIQLSSLTSEDSAVYYCARGGGIYYDYDGAMDYWGQGTSVTVSS
VL: DIQMTQSSSSFSVSLGDRLTITCKASEVIYNRLAWFQQKPGNAPRLLISGATSLETGVPSRFSGSGSRKDYTLSISSLQTEDVATYYCQQYWSSPFTFGSGTKLEIK
notes: Mouse monoclonal antibody from hybridoma CGMCC No. 16287
B2 was tested, and the “fold decrease in percentage of GFP positive reporter cells with serum from SLE patients” value [3] was about 3 fold and the binding result [4] was “binds”.

B3: Hu4-6 (antibody, V domains shown)
VH: QVQLVQSGAEVKKPGASVKVSCKASGYTFTSYWMNWVRQAPGQGLEWMGKIDPSDSETHFNQKFRDRVTLTVDKSTSTVYMELSSLRSEDTAVYYCARGGRISFDYDAALDYWGQGTLVTVSS
VL: DIQMTQSPSSLSASVGDRVTITCKSSEVIYNRLAWYQQKPGKAPKLLIYGATTLESGVPSRFSGSGSGKDYTLTISSLQPEDFATYYCQQYWNKPFTFGQGTKLEIK
notes: Humanized 7G4 variant
B3 was tested, and the Kd (Human IFNAR1 SD1-SD4) was 0.633 nM, the koff (Human IFNAR1 SD1-SD4) was 0.000281 s⁻¹ and the kon (Human IFNAR1 SD1-SD4) was 444000 M⁻¹ s⁻¹. The “EC50 (read off the curve)” value [5] was about 0.06 µg/mL, the “EC50 (read off the curve)” value [6] was about 0.04 µg/mL and the EC50 (human IFNAR1 ECD) was 0.00321 µg/mL. For the same molecule, the Top (human IFNAR1 ECD) was 3.35 OD450.
